{"source": "paper doi:10.1101/2023.01.09.523197", "binders": {"B1": {"name": "amtB+2Cy3 (dsDNA)", "DNA 1": "GCCCCGGCCGTTCACCCACGCGTAACACGCACCGTGCCTTCGTCACGGCGGCGAAACAACGAGGGGCTTCCACCGAAACCGCGCTGCGTCAATGTCGTGGCGCATAACCGGCCCACCCCT", "DNA 2": "AGGGGTGGGCCGGTTATGCGCCACGACATTGACGCAGCGCGGTTTCGGTGGAAGCCCCTCGTTGTTTCGCCGCCGTGACGAAGGCACGGTGCGTGTTACGCGTGGGTGAACGGCCGGGGC"}}, "target": "GlnR147-Alexa647;RNAP holoenzyme (Mycobacterium …, UniProt O53830;P9WGZ1;P9WGY9;P9WGY7;P9WGY5;P9WGI1 1-255;1-347;1-1178;1-1316;1-110;1-528, C61S;L148C|)", "assay": "[…], SEC in 20 mM Tris-HCl pH 8.0, 75 mM NaCl, 5 mM MgCl2"}
{"binder": "B1", "values": [{"measurement": "binding result", "result": "binds"}]}
